Measurements published in patent US20220176020A1, “Improved Bone Implant Matrix Comprising Proline-Rich Peptide And Method Of Preparing The Same” (Industrie Biomediche Insubri S.A., priority 2019, published 2022).
No end group written: not given here. *: point of attachment. FITC = O=C1OC2(c3ccc(O)cc3Oc3cc(O)ccc32)c2ccc(NC(=S)*)cc21

What was measured:
[1] = Release profile of FITC-labelled PRP from SBP in 10 ml purified water; type: physicochemical; conditions: for period of highest release rate / release of peptide: 10 ml purified water; for release of peptide: FITC on C- or N-terminal
Description: For 4 days the solution was analysed every 24 h using UV-vis, then 48 h after, and finally […] after. The water was changed every time to better simulate in vivo conditions, maximizing the drive force. Having a FITC+H2O calibration curve, the absorbance could be related to the concentration. Using a known quantity of water, the mass released could be derived from the measured concentration.
For a proper FITC release profile, also samples of bone implant matrix, identified as “SB”, reproduced according to example 3 were studied, since other components of the “SB” is likely to be released, the blank used for the spectroscopy was based on a water+“SB” solution. […] To identify the presence of “PRP” in the aqueous solution, FITC molecules were either attached to the C- or N-terminal of the peptide before loading.
Calibration was used to derive the concentration of FITC released in the water solution at the given time points. With a known quantity of water used at a given time, the mass released can be derived.
Best fit plots where made using the inbuild best-fit function of Graph (Software) assuming both a logarithmic and power function. In general, the logarithmic functions were more accurate (R^2-values closer to 1).

MC3T3-E1 cells = assay: Real-time PCR of osteogenic marker mRNA levels (COL1A1, ALP, OC, VEGFA); type: cell-based, murine; conditions: FIG. 10; for COL1A1 mRNA levels: after 14 days; for OC level: time at which highest/max is reached: measured at 1, 3, 7 and 14 days
Description: The cells assessed was murine pre-osteoblastic cell line (MC3T3-E1) obtained from the German Collection of Micro-organisms and Cell Cultures (DSMC, Braunschweig, Germany). MC3T3-E1 cells were routinely cultured at 37° C. in a humidified atmosphere of 5% CO2, and maintained in α-MEM supplemented with 10% foetal calf serum (FCS) and antibiotics (50 IU penicillin/ml and 50 μg streptomycin/ml). Cells were subcultured 1:4 before reaching confluence using PBS and trypsin/EDTA. All experiments were performed in the same passage of the MC3T3-E1 cells.
Then, cells were maintained static at 37° C. in a humidified atmosphere of 5% CO2 for up to 14 days. The same number of cells were cultured in parallel in plastic in all the experiments.
Total RNA was isolated with Tripure (Roche Diagnostics) and RNA was quantified using a spectrophotometer set at 260 nm. Real-time PCR was performed for two reference genes and several target gene (Table) The same amount of total RNA from each sample (370 ng) was reverse transcribed to cDNA at 37° C. for 60 min in a final volume of 20 μl, using High Capacity RNA to cDNA kit (Applied Biosystems). Each cDNA was diluted 1/7 and these dilutions are used to carry on the quantitative PCR.
Real-time PCR was performed in the Lightcycler 480® (Roche Diagnostics, Germany) using SYBR green detection. For each reaction, 7 μl of Lightcycler-FastStart DNA MasterPLUS SYBR Green I, 0.5 μM of sense and antisense specific primer and 3 μl of the cDNA dilution in a final volume of 10 μl was added. The normal amplification program consisted of a preincubation step for denaturation of the template cDNA (95° C.), followed by 45 cycles consisting of a denaturation step (95° C.), an annealing step (60° C., for all expect for ALP and osterix, which were 65° C. and 68° C. respectively) and an extension step (72° C.). Real-time efficiencies were calculated from the given slopes in the LightCycler 480 software using serial dilutions.
Relative quantification after PCRWas calculated by dividing the concentration of the target gene in each sample by the mean of the concentration of the two reference genes (Housekeeping genes) in the same sample using the advanced relative quantification method provided by the LightCycler 480 analysis software version 1.5 (Roche Diagnostics, Mannheim, Germany).

## P2N: PRP version P2 (SEQ ID 4) with FITC attached on the N terminal ({FITC}-PLVPSQPLVPSQPLVPSQPQPPLPP)
[1]; after 14 days, FIG. 2
  release rate: jump in release rate

## PHQ PMQ PQP PVH PMQ PLP PQP PLPP (PHQPMQPQPPVHPMQPLPPQPPLPP; proline rich peptide) [P6, artificial Proline-Rich Peptide]
MC3T3-E1 cells
  COL1A1 mRNA levels: raised significantly
  OC level: time at which highest/max is reached: 7 days

## PLV PSQ PLV PSQ PLV PSQ PQP PLPP (PLVPSQPLVPSQPLVPSQPQPPLPP; proline rich peptide) [P2, artificial Proline-Rich Peptide]
[1]
  period of highest release rate: highest release rate the two first days
[1]; FIG. 2, comparison P2 vs P5
  initial release: higher initial release than P5
[1]; after 14 days
  release of peptide: 11.75 to 14.01 µg

## PLV PSS PLV PCC PLV PCC PSP PLPP (PLVPSSPLVPCCPLVPCCPSPPLPP; proline rich peptide) [P5, artificial Proline-Rich Peptide]
MC3T3-E1 cells
  COL1A1 mRNA levels: drop
  OC level: time at which highest/max is reached: fairly stable
[1]
  period of highest release rate: highest release rate the two first days
[1]; after 14 days
  release of peptide: 8.75 to 9.90 µg
